For data set [1], the system named is condensin pentamer (Schizosaccharomyces pombe). Description: condensin immunoprecipitation, 500 mM NaCl wash. As to conditions: Mg2+, ATP, binding buffer, pH and temperature not given in material, washes at 500 mM NaCl (topological loading) or 100 mM NaCl (gripping state).
For data set [2], the system named is condensin pentamer;condensin pentamer (Schizosaccharomyces pombe;Schizosaccharomyces pombe). Nature of the data set: second DNA capture by condensin preloaded on bead-bound DIG-5kb-DIG. As to conditions: binding buffer, pH and temperature not given in material; Mg2+ and ATP; washes at 500 mM NaCl (topological loading) or 100 mM NaCl (gripping state).
The target in data set [3] is T1, Cnd1^Ycs4 (fission yeast condensin HEAT-repeat subunit) (S. pombe, UniProt O94679 1-1158).
T1 construct: Cnd1 (Ycs4), S. pombe condensin HEAT-repeat subunit; cDNA cloned into an S. cerevisiae expression vector; source: S. cerevisiae (w303, pep4 deleted), co-overexpressed with the other four condensin subunits from GAL1-10 promoters; in cell extract, and purified as the complex (IgG-agarose, 3C protease elution, heparin, Superose 6)
T1 sequence (looked up): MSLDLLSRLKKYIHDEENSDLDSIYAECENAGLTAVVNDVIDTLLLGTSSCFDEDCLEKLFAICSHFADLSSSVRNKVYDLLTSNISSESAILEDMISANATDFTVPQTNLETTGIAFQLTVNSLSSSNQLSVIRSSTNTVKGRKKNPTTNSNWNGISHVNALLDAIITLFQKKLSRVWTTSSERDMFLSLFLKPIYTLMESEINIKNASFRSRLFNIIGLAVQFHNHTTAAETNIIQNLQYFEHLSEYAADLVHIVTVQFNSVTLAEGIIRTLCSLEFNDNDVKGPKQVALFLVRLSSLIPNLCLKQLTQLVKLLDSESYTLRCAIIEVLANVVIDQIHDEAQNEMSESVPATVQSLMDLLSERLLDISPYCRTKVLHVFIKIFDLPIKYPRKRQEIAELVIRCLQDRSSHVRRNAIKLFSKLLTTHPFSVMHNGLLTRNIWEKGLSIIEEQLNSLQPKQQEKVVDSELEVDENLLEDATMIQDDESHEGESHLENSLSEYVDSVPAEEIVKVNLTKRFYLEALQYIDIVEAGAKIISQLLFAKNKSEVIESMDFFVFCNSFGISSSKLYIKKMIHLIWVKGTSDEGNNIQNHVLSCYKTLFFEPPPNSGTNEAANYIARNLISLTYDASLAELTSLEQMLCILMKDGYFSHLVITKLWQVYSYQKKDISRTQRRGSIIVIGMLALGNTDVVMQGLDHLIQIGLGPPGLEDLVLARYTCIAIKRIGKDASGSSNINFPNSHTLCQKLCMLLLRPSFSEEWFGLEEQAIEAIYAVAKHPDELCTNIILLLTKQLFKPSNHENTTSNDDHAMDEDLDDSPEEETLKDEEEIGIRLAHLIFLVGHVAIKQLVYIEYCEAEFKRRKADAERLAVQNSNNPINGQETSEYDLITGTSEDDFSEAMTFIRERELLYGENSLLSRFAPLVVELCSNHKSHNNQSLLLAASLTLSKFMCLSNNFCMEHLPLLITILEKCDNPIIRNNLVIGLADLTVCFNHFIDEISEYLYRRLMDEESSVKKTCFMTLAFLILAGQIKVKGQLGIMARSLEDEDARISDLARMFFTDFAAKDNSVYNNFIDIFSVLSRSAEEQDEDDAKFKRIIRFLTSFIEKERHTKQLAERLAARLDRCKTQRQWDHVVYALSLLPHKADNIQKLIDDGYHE
Description: cross-linking; sulfo-SDA cross-link mass spectrometry (CLMS) of the purified five-subunit condensin complex with equimolar 124 bp linear dsDNA and 0.5 mM ADP·BeF3 (DNA-gripping state); CL buffer, 30°C 30 min, UV 365 nm on ice; 1% FDR at residue-pair level. As to conditions: both partners purified.

Turning to supercoiled pBlueScript KSII(+), the binding signal (% of input DNA recovered) in data set [1] was > 40. Further, the binding signal (% of second dsDNA captured) in data set [2] came to 10.

B1: Cnd2^Brn1 (fission yeast condensin kleisin subunit) (natural protein, S. pombe, UniProt Q9Y7R3 1-742, looked up)
chain: MKRASLGGHAPVSLPSLNDDALEKKRAKENSRKQRELRRSSALHSITPRRESLNNSSPFNSSHQVPVLSNFEEWIKLATDNKINSTNTWNFALIDYFHDMSLLRDGEDINFQKASCTLDGCVKIYTSRIDSVATETGKLLSGLANDSKVLQQTEEGEDAENDDEDLQKKKERKRAQRSVKTLVKDFESIRAKKFELECSFDPLFKKMCADFDEDGAKGLLMNHLCVDQHGRIVFDSSDTVIKDLENKDVEAESQEAVVAAPIESHDTEMTNVHDNISRETLNGIYKCYFTDIDQLTICPSLQGFEFDSKGNLDVSLLKSLSDEVNMITTTSLVDNTMEKTDADAASLSSDSDGEEGHIVHALEEMAYDEENPYVDVVPKAMDESENPDFGVDTEVNMADGSTMNENYSIISTAAANGVYEYFDKSMKKNWAGPEHWRIQALRKNINNASTVFNSSNTAESSDNVSRSLSSTERKKRRELDNAIDFLQEVDVEALFTPATSSLKLPKSHWKRHNRCLLPDDYQYDSKRLLQLFLKPKMSVLPNADGEGQLQLNKALDDENDLDGIQPHGFDSDGSDNVDEGIPPYGFGDSDSPKQTPLLTPPSSSGFGDNLLLTARLAKPDMLNYAKRAKKVDVRVLKEKLWKCLDLENTIKENSINSHIEGSEMESEETNMPVKSFFSTVNQLEETYEKKELKDISTSFAFICVLHLANEHNLELTSNEDFSDVFIRPGPNLTTLEALENDV
notes: Cnd2 (Brn1), S. pombe condensin kleisin subunit; cDNA cloned into an S. cerevisiae expression vector; The 2xProtA tag was still on the chain while the complex was captured on rabbit IgG-agarose (assay a1); also called Cnd2-2xProtA; source: S. cerevisiae (w303, pep4 deleted), co-overexpressed with the other four condensin subunits from GAL1-10 promoters; in cell extract, and purified as the …
With B1, the binding result in data set [3] is listed as “binds”.

(Values after PMC10842940, “Establishment of dsDNA-dsDNA interactions by the condensin complex” (Molecular cell, 2023).)
